The data set concerns the target T1, TaDOF6 (Triticum aestivum (wheat; cultivar of …, UniProt A0A3B6LII6 1-338).
T1 sequence: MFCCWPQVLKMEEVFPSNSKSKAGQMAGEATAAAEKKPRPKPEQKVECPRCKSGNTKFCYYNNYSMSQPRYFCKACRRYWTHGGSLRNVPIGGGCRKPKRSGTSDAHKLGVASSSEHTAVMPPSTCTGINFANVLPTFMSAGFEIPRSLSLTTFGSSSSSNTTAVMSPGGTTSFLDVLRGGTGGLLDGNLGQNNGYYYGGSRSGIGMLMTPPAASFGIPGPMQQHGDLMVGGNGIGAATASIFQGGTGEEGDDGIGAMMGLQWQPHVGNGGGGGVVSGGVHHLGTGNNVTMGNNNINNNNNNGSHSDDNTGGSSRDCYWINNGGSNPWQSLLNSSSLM
Put plainly: EMSA; EMSA buffer, salt, pH and temperature not stated (gel as in Zhang et al., 2016); probes annealed 95 C to 25 C. The conditions noted are these: protein: recombinant; tags: His (pETMALc-H vector); label: biotin (printed at both ends of each strand); blunt.

B1: TaSWEET13h promoter P-box probe (dsDNA)
DNA 1: ATTAAAGCTAAAGTGTACACCAAAGCGACAACTTTTG
DNA 2: CAAAAGTTGTCGCTTTGGTGTACACTTTAGCTTTAAT
As for B1, the binding result is “binds”.

(Values after article PMC12237909, “Wheat endosperm-specific transcription factor TaDOF6 enhances grain development by regulating TaSWEET13h expression and facilitating sugar and gibberellin transport”.)
